Laboratory results taken from patent US20140228546A1 (Ablynx, published 2014).

Experiments:
[1] = target: T1, c-MET receptor on A549 cells (UniProt P08581 25-1390, limits assumed); experiment: cell-based or functional assay
human serum albumin [2] = target: T2, human serum albumin (human, UniProt P02768 25-609); experiment: SPR, Biacore T100, albumin immobilized on CM5, 25 C, 1:1 model
T2 construct: also called Human SA; HSA
Method: (§1) HBS-EP+ buffer (0.01M HEPES buffer containing 0.15M NaCl, 3 mM EDTA and 0.05% Surfactant p20, pH7.4) was used as the running buffer and experiments were performed at 25° C. Serum albumin was chemically coupled on a Series S sensorchip chip CM5 with carboxymethylated dextran surface by a manual immobilization run at a flow rate of 5 μl/min. […] After immobilization, surfaces were deactivated with a 7 min injection of 1M ethanolamine pH8.5. A blank reference surface (flowcell 1) was activated and deactivated as described above. […] Between different samples, the surfaces were regenerated with regeneration buffer 10 mM glycine-HCl pH1.5, 100 s at 45 μl/min. Data were double referenced by subtraction of the curves on the reference channel and of a blank running buffer injection curve. Processed curves were evaluated by fitting a 1:1 binding model onto the binding curves in the Biacore T100 Evaluation software.

mouse serum albumin = target: T3, mouse serum albumin (mouse, UniProt P07724 25-608); experiment: as above
T3 construct: also called Murine SA
Method: as §1

cynomolgus serum albumin [3] = target: T4, cynomolgus serum albumin (cynomolgus, UniProt A2V9Z4 25-608); experiment: as above
T4 construct: also called Cyno SA
Method: as §1

[4] = target: T1, c-MET receptor on A549 cells; experiment: cell-based or functional assay; remark: listed apart in the source
c-MET/Fc [5] = target: T5, c-MET/Fc (UniProt P08581 25-932); experiment: HGF/c-MET competition AlphaScreen; competitor: 100 pM biotinylated hHGF
T5 construct: also called c-MET receptor; not shown: Fc part, captured by anti-human Fc acceptor beads

c-MET/Fc [6] = target: T5, c-MET/Fc; experiment: as above; remark: listed apart in the source
Method: To this mixture the anti-human Fc conjugated acceptor beads and c-MET/Fc (100 μM final concentration) were added and incubated for 2 hours at RT. Next, streptavidin donor beads were added and the mixture was incubated for 1 additional hour. Fluorescence was measured by reading plates on the EnVision Multilabel Plate Reader using an excitation wavelength of 680 nm and an emission wavelength of 520 nm.

human serum albumin [7] = target: T2, human serum albumin; experiment: method not stated (Table 6 comparison)
cynomolgus serum albumin [8] = target: T4, cynomolgus serum albumin; experiment: method not stated (Table 6 comparison)

T2 sequence (P02768 25-609 limits assumed): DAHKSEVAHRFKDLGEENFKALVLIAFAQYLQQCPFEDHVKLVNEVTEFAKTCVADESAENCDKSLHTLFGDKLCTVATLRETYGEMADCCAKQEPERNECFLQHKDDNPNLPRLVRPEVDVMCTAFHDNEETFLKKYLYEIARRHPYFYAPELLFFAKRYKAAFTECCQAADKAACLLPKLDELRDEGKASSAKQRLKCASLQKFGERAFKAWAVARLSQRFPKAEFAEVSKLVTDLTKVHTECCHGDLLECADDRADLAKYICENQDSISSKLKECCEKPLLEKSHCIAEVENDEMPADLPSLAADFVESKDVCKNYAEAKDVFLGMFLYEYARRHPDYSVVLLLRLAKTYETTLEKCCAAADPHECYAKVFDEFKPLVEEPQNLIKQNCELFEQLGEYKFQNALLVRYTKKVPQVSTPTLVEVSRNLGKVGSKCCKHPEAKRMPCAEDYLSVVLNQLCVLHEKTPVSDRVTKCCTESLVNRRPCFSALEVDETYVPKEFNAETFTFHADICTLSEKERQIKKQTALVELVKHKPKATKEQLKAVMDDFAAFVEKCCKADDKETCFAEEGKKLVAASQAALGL
T1 sequence (P08581 25-1390 limits assumed): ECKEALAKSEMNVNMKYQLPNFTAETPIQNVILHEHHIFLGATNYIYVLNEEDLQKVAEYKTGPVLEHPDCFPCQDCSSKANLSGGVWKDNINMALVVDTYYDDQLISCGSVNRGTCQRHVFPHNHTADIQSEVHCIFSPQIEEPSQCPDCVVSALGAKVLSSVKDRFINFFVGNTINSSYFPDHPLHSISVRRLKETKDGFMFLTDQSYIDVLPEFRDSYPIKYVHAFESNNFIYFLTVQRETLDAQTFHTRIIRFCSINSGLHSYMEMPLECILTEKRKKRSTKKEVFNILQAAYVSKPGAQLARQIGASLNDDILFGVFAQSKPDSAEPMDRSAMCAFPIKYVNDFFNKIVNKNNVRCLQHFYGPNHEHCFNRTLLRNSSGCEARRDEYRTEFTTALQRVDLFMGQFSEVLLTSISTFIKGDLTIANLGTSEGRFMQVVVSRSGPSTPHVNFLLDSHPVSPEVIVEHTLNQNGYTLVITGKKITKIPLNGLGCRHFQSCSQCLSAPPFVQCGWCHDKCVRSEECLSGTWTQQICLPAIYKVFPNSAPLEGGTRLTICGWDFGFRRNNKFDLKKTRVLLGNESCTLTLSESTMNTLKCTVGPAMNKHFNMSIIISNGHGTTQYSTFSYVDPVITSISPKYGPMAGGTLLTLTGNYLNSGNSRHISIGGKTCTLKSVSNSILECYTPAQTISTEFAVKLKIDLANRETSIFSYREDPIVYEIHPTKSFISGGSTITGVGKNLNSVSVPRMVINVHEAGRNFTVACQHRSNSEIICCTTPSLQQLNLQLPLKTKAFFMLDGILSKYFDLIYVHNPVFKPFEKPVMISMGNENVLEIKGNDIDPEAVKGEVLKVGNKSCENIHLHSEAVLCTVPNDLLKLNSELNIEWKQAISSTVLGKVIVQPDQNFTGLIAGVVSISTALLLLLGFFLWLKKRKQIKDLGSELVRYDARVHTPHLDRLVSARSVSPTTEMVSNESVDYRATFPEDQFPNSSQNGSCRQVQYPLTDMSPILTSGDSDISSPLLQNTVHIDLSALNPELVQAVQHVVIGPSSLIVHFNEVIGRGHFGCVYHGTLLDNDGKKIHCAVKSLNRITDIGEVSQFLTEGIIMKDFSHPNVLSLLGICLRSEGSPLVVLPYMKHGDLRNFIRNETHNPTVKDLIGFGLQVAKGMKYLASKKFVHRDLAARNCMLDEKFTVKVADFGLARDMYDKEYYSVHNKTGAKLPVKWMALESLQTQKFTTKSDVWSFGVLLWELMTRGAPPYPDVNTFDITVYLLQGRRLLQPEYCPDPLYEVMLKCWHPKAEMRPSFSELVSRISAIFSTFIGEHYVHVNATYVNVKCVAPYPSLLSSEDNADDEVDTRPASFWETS
T4 sequence (A2V9Z4 25-608 limits assumed): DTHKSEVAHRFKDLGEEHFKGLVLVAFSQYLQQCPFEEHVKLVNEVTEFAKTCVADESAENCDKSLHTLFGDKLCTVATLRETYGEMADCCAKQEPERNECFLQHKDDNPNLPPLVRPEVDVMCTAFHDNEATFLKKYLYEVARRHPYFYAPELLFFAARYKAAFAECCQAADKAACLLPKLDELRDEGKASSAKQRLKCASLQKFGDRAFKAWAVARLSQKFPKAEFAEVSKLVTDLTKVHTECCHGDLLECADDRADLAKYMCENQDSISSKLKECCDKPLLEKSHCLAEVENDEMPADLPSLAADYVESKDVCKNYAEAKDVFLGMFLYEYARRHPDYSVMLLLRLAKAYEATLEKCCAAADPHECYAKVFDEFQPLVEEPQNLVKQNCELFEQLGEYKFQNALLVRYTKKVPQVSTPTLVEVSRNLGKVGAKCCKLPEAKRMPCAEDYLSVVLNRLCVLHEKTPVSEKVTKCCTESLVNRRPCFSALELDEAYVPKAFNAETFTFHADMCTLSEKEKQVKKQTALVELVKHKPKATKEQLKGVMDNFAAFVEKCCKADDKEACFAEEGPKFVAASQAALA
T5 sequence (P08581 25-932 limits assumed): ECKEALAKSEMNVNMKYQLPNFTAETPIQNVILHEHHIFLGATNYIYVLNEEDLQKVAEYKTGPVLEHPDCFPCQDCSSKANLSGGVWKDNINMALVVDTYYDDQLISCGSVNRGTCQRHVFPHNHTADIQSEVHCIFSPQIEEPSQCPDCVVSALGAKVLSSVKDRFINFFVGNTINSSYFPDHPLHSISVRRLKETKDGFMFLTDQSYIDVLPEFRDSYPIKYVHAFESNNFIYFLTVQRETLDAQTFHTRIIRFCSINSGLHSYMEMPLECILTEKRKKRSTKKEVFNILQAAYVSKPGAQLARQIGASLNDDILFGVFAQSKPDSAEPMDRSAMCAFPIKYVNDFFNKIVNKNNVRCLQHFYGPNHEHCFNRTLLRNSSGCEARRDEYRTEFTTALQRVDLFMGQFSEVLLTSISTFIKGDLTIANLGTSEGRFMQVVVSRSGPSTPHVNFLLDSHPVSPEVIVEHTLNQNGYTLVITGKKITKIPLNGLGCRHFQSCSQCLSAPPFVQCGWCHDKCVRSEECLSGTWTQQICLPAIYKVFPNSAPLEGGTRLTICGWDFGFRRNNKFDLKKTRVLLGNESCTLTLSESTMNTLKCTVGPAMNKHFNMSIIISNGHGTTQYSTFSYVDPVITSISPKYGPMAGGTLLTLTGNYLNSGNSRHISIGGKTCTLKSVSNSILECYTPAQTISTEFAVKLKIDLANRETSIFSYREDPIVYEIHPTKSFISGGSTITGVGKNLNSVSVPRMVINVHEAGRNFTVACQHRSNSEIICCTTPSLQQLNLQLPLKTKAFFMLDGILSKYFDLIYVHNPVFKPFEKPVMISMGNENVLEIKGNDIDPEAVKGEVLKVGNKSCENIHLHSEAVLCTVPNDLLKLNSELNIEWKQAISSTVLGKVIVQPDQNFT

| fold improved potency vs 5D5 Fab v2, HGF-dependent c-MET phosphorylation in A549 cells [1] | Kd (human serum albumin [2]) | koff (human serum albumin [2]) | kon (human serum albumin [2]) | Kd (mouse serum albumin) | koff (mouse serum albumin) | kon (mouse serum albumin) | Kd (cynomolgus serum albumin [3]) | koff (cynomolgus serum albumin [3]) | kon (cynomolgus serum albumin [3]) | IC50, HGF-dependent c-MET phosphorylation in A549 cells (MSD), +HSA [4] | IC50, HGF-dependent c-MET phosphorylation in A549 cells (MSD), -HSA [4] | fold improved potency vs 5D5 Fab v2 (c-MET/Fc [5]) | IC50 (c-MET/Fc [6]) | Kd (human serum albumin [7]) | Kd (cynomolgus serum albumin [8]) | Binder |
| --- | --- | --- | --- | --- | --- | --- | --- | --- | --- | --- | --- | --- | --- | --- | --- | --- |
| ~2 fold | 24 nM | 0.0033 s⁻¹ | 130000 M⁻¹ s⁻¹ | 300 nM | 0.05 s⁻¹ | 170000 M⁻¹ s⁻¹ | 27 nM | 0.0032 s⁻¹ | 120000 M⁻¹ s⁻¹ | 4.2 nM | 5.41 nM | > 5 fold | 0.066 nM |  |  | A007901219 (A00790105-9GS-Alb23) (bispecific antibody, Single polypeptide chain; also called A007901219 (Alb23)) DVQLVESGGGLVQPGGSLRLSCAASGFILDYYAIGWFRQAPGKEREGVLCIDASDDITYYADSVKGRFTISRDNSKNTVYLQMNSLRPEDTAVYYCATPIGLSSSCLLEYDYDYWGQGTLVTVSSGGGGSGGGSEVQLLESGGGLVQPGGSLRLSCAASGFTFRSFGMSWVRQAPGKGPEWVSSISGSGSDTLYADSVKGRFTISRDNSKNTLYLQMNSLRPEDTAVYYCTIGGSLSRSSQGTLVTVSS |
|  | 2.6 nM |  |  |  |  |  | 2.7 nM |  |  |  |  |  |  | 2.7 nM | 3 nM | Alb-23 (VHH, Monovalent anti-serum albumin Nanobody, a humanized version of Alb-1) VHH: EVQLLESGGGLVQPGGSLRLSCAASGFTFRSFGMSWVRQAPGKGPEWVSSISGSGSDTLYADSVKGRFTISRDNSKNTLYLQMNSLRPEDTAVYYCTIGGSLSRSSQGTLVTVSS |
